# Experimental data as given in patent US20200048358A1 (ALLIGATOR BIOSCIENCE, published 2020).
# Changes are numbered by the printed parent chain.
# T1: construct 84: Construct containing the full length OX40 sequence (human, UniProt P43489 29-277)
# T1 construct: On transiently transfected FreeStyle 293-F cells; also called human OX40 (full length, on 293-F cells)
# T1 sequence: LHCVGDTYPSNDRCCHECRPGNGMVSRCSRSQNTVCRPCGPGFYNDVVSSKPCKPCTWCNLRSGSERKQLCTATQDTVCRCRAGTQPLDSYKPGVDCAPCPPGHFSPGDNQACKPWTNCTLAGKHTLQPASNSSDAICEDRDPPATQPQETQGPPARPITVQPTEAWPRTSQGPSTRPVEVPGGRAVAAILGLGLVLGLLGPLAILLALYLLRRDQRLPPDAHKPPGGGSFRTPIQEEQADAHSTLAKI
# T2: chimeric OX40 construct 1544: Human OX40 with mouse domains 1A, 1B and 2A (aa 30-81) (human; mouse, UniProt P47741 26-77)
# T2 construct: domain: 1A, 1B and 2A; On transiently transfected FreeStyle 293-F cells
# T2 sequence: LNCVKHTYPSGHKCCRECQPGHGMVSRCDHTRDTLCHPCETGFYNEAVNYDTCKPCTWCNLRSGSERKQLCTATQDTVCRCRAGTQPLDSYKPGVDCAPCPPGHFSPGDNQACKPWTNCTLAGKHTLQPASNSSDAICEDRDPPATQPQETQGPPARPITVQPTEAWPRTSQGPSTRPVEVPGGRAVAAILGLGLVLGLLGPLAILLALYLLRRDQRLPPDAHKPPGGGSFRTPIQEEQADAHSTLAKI
# T3: chimeric OX40 construct 1545: Human OX40 with mouse domains 1B, 2A and 2B (aa 43-107) (human; mouse, UniProt P47741 39-103)
# T3 construct: domain: 1B, 2A and 2B; On 293-F cells; limits derived as for 1544
# T3 sequence: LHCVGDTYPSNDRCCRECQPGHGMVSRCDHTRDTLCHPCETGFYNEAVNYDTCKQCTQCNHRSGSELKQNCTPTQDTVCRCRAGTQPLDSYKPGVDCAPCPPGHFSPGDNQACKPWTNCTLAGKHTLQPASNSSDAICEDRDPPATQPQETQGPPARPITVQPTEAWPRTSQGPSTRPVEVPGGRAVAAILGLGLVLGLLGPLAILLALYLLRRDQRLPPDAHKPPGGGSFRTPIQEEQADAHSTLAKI
# T4: chimeric OX40 construct 1546: Human OX40 with mouse domains 2A, 2B and module 3 (aa 66-126) (human; mouse, UniProt P47741 62-124)
# T4 construct: domain: 2A, 2B and module 3; On 293-F cells; limits derived as for 1544
# T4 sequence: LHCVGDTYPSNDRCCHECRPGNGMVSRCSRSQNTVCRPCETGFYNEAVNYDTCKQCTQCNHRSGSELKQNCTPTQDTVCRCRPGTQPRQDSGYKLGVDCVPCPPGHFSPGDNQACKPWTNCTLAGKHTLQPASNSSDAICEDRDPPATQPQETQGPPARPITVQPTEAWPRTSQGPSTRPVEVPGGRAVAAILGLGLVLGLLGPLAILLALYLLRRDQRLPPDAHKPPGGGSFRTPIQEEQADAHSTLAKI
# T5: chimeric OX40 construct 1547: Human OX40 with mouse domain 2B, module 3 and domain 4A (aa 83-141) (human; mouse, UniProt P47741 79-139)
# T5 construct: domain: 2B, module 3 and domain 4A; On 293-F cells; limits derived as for 1544
# T5 sequence: T4 sequence with E40G, T41P, E46D, A47V, N49S, Y50S, D51K, T52P, D111N
# T6: chimeric OX40 construct 1548: Human OX40 with mouse module 3 and domains 4A and 4B (aa 108-167) (human; mouse, UniProt P47741 104-165)
# T6 construct: domain: module 3 and domains 4A and 4B; On 293-F cells; limits derived as for 1544
# T6 sequence: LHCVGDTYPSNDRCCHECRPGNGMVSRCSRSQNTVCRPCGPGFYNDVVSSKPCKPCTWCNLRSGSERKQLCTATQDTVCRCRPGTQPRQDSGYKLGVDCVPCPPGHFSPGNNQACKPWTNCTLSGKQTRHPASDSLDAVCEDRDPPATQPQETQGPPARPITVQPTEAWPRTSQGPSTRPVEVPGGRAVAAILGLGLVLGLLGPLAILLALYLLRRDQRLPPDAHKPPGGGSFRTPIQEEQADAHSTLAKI
# B1: bispecific molecule 1526/1585 (bispecific antibody, human IgG1, kappa)
# heavy: not shown
# light: DIQMTQSPSSLSASVGDRVTITCRASQSISSYLNWYQQKPGKAPKLLIYAASSLQSGVPSRFSGSGSGTDFTLTISSLQPEDFATYYCQQYGSDSLLTFGQGTKLEIKRTVAAPSVFIFPPSDEQLKSGTASVVCLLNNFYPREAKVQWKVDNALQSGNSQESVTEQDSKDSTYSLSSTLTLSKADYEKHKVYACEVTHQGLSSPVTKSFNRGECSGGGGSGGGGSAPLKIQAYFNETADLPCQFANSQNLSLSELVVFWQDQENLVLNEVYLGKERFDSVDSKYMGRTSFDSDSWTLRLHNLQIKDKGRYQCIIHHKKPTGMINIHQMNSELSVLA
# B2: human OX40L (hOX40L, RnD Systems) (ligand, UniProt P23510 51-183, looked up)
# chain: QVSHRYPRIQSIKVQFTEYKKEKGFILTSQKEDEIMKVQNNSVIINCDGFYLISLKGYFSQEVNISLHYQKDEEPLFQLKKVRSVNSLMVASLTYKDKVYLNVTTDNTSLDDFHVNGGELILIHQNPGEFCVL
# notes: also called human OX40 ligand
# B3: anti-OX40 antibody 1524/1525 (antibody, V domains shown)
# VH: EVQLLESGGGLVQPGGSLRLSCAASGFTFGSYYMGWVRQAPGKGLEWVSSIGSYYGYTYYADSVKGRFTISRDNSKNTLYLQMNSLRAEDTAVYYCARHDYGALDYWGQGTLVTVSS
# VL: DIQMTQSPSSLSASVGDRVTITCRASQSISSYLNWYQQKPGKAPKLLIYAASSLQSGVPSRFSGSGSGTDFTLTISSLQPEDFATYYCQQYGPSGLFTFGQGTKLEIK
# notes: Tested as IgG
# B4: anti-OX40 antibody 1526/1527 (antibody, V domains shown)
# VH: EVQLLESGGGLVQPGGSLRLSCAASGFTFSGYSMYWVRQAPGKGLEWVSGIGYSGYGTYYADSVKGRFTISRDNSKNTLYLQMNSLRAEDTAVYYCARYYFHDYAAYSLDYWGQGTLVTVSS
# VL: B3 VL with P93S, S94D, G95S, F97L
# notes: Tested as IgG
# B5: anti-OX40 antibody 1168/1135 (antibody, V domains shown)
# VH: EVQLLESGGGLVQPGGSLRLSCAASGFTFSGSSMSWVRQAPGKGLEWVSSISYYGGYTYYADSVKGRFTISRDNSKNTLYLQMNSLRAEDTAVYYCARYFPHYYFDYWGQGTLVTVSS
# VL: not shown
# notes: Tested as IgG
# B6: anti-OX40 antibody 1542/1135 (antibody, V domains shown)
# VH: EVQLLESGGGLVQPGGSLRLSCAASGFTFGSSSMYWVRQAPGKGLEWVSGIGYYSYSTSYADSVKGRFTISRDNSKNTLYLQMNSLRAEDTAVYYCARGYPHHYFDYWGQGTLVTVSS
# VL: not shown
# notes: Tested as IgG
# B7: anti-OX40 antibody 1482/1483 (antibody, V domains shown)
# VH: EVQLLESGGGLVQPGGSLRLSCAASGFTFSSYAMSWVRQAPGKGLEWVSYISYYSGYTYYADSVKGRFTISRDNSKNTLYLQMNSLRAEDTAVYYCARGYGYLDYWGQGTLVTVSS
# VL: DIQMTQSPSSLSASVGDRVTITCRASQSISSYLNWYQQKPGKAPKLLIYAASSLQSGVPSRFSGSGSGTDFTLTISSLQPEDFATYYCQQYGSLLTFGQGTKLEIK
# notes: Tested as IgG
# Biological target: CTLA-4 (BMS, Orencia) (human, UniProt P16410 38-152)
# Sequence (P16410 38-152 limits assumed): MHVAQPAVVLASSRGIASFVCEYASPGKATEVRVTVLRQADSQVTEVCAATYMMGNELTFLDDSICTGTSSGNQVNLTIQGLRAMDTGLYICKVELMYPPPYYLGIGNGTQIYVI
# Experiment: cell-based or functional assay
row,Binder,Mean IL-2 level (pg/ml) induced at 1.5 nM bispecific antibody or control
1,B1,3200 pg/mL

# Biological target: T1, construct 84: Construct containing the …
# Experiment: flow cytometry on human/mouse OX40 chimeras
# Protocol: (§1) The mouse/human chimeras were transiently transfected into FreeStyle 293-F cells (Invitrogen), incubated 48 hours in FreeStyle 293 expression medium (Invitrogen) 37 C, 8% CO₂, 135 rpm. The transfected cells were incubated with human OX40 antibodies, human OX40L (hOX40L, RnD Systems), mouse OX40L (mOX40L, RnD Systems) and controls for 30 min 4° C. and then detected with a-huIgG-PE (Jackson lmmunoresearch) 30 min 4° C. Cells were analyzed with FACS Verse (BD Biosciences). Binding to the different chimeric constructs were calculated as relative (mean fluorescence intensity) MFI compared to the binding of the isotype control.
row,Binder,binding result
1,B2,binds

# Biological target: T2, chimeric OX40 construct 1544: Human …
# Experiment: flow cytometry, transfected 293-F cells
# Protocol: as §1
row,Binder,relative MFI compared to isotype control
1,B3,1.5
2,B4,1.1
3,B5,13.2
4,B6,7.1
5,B7,8.4

# Biological target: T3, chimeric OX40 construct 1545: Human …
# Experiment: flow cytometry, transfected 293-F cells
# Protocol: as §1
row,Binder,relative MFI compared to isotype control
1,B3,0.9
2,B4,1.3
3,B5,46.6
4,B6,40.2
5,B7,44.4

# Biological target: T4, chimeric OX40 construct 1546: Human …
# Experiment: flow cytometry, transfected 293-F cells
# Protocol: as §1
row,Binder,relative MFI compared to isotype control
1,B3,0.9
2,B4,0.9
3,B5,0.9
4,B6,0.9
5,B7,0.9

# Biological target: T5, chimeric OX40 construct 1547: Human …
# Experiment: flow cytometry, transfected 293-F cells
# Protocol: as §1
row,Binder,relative MFI compared to isotype control
1,B3,1
2,B4,1
3,B5,1
4,B6,1
5,B7,1

# Biological target: T6, chimeric OX40 construct 1548: Human …
# Experiment: flow cytometry, transfected 293-F cells
# Protocol: as §1
row,Binder,relative MFI compared to isotype control
1,B3,15.4
2,B4,12.7
3,B5,1
4,B6,1.2
5,B7,1.1

# Biological target: T1, construct 84: Construct containing the …
# Experiment: flow cytometry, transfected 293-F cells
# Protocol: as §1
row,Binder,relative MFI compared to isotype control
1,B3,31.4
2,B4,21.4
3,B5,29.6
4,B6,29.4
5,B7,24.9
